Measurements reported in US20200299407 (published 2020).

Assays:
[1] = molecular target: Her2 ECD (Pertuzumab KO)-Fc knob (human); assay: SPR, 25C
[2] = molecular target: Her2 ECD (Pertuzumab KO)-Fc knob (human); assay: SPR
[3] = molecular target: HER2 ECD (aa 1-629 mature) (human); assay: SPR
[4] = molecular target: Her2 ECD (Trastuzumab KO)-Fc knob (human); assay: SPR
[5] = molecular target: Her2 ECD (Trastuzumab KO)-Fc knob (human); assay: SPR, 25C
[6] = molecular target: human transferrin receptor (human, UniProt P02786); assay: SPR
Chain of human transferrin receptor (P02786 89-760): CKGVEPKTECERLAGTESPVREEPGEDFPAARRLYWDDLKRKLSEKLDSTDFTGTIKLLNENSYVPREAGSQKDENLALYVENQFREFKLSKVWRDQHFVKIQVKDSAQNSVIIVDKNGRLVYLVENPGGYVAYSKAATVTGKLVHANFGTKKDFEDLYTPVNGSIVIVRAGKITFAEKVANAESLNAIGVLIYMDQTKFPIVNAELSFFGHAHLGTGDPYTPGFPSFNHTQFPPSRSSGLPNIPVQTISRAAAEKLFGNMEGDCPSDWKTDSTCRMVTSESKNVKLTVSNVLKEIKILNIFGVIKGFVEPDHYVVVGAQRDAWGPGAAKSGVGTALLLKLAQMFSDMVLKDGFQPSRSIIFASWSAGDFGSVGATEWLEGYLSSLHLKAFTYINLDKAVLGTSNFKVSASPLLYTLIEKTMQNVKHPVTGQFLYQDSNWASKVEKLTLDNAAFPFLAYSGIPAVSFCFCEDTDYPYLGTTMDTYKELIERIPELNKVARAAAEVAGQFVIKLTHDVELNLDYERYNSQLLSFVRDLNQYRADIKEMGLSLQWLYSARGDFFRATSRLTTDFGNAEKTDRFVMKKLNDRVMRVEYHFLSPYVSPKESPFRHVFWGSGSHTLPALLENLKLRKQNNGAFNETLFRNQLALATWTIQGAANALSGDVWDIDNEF

| Kd [1] [nM] | Kd [5] [nM] | Binder | further results |
| --- | --- | --- | --- |
| – | 9.65 | Herceptarg G2 Pertuzumab arm (antibody, V domains shown) VH: EVQLVESGGGLVQPGGSLRLSCAASGFTFTDYTMDWVRQAPGKGLEWVADVNPNSGGYIVNRRFKGRFTLSVDRSKNTLYLQMNSLRAEDTAVYYCARNLGPSFYFDYWGQGTLVTVSS VL: DIQMTQSPSSLSASVGDRVTITCKASQDVSTAVAWYQQKPGKAPKLLIYSASFRYTGVPSRFSGSRSGTDFTLTISSLQPEDFATYYCQQHYTTPPTFGQGTKVEIK | – |
| 1.82 | – | Herceptarg G2 Trastuzumab arm (antibody, V domains shown) VH: not shown VL: DIQMTQSPSSLSASVGDRVTITCKASQDVSTAVAWYQQKPGKAPKLLIYSASFRYTGVPSRFSGSRSGTDFTLTISSLQPEDFATYYCQQHYTTPPTFGQGTKVEIK | – |

Second part, the binder before the results:

| Binder | Kd [1] [nM] | Kd [5] [nM] | further results |
| --- | --- | --- | --- |
| Herceptarg CrossMab Trastuzumab arm (antibody, V domains shown) VH: QVQLVQSGAEVKKPGASVKVSCKASGFNIKDTYIHWVRQAPGQGLEWMGRIYPTNGYTRYAQKFQGRVTMTRDTSISTAYMELSRLRSDDTAVYYCSRWGGEGFYAMDYWGQGTMVTVSS VL: DIQLTQPPSVSVAPGQTARITCGASQDVSTAVAWYQQKPGQAPVLVVYSASFLYSGIPSRFSGSRSGTDFTLTISRVEAGDEADYYCQQHYTTPPTFGTGTKVTVLR | 0.8 | – | – |
| Pertuzumab (antibody) chain 1: EVQLVESGGGLVQPGGSLRLSCAASGFTFTDYTMDWVRQAPGKGLEWVADVNPNSGGSIYNQRFKGRFTLSVDRSKNTLYLQMNSLRAEDTAVYYCARNLGPSFYFDYWGQGTLVTVSS chain 2: DIQMTQSPSSLSASVGDRVTITCKASQDVSIGVAWYQQKPGKAPKLLIYSASYRYTGVPSRFSGSGSGTDFTLTISSLQPEDFATYYCQQYYIYPYTFGQGTKVEIK | – | – | binding result [2]: no binding; Kd [3]: 0.147 nM; Kd [4]: 0.62 nM |
| Herceptarg D1-derived Pertuzumab arm (antibody, V domains shown) VH: EVQLVESGGGLVQPGGSLRLSCAASGFTFNDYTMDWVRQAPGKGLEWVADVNPNSGGSIVNRRFKGRFTLSVDRSKNTLYLQMNSLRAEDTAVYYCARNLGPFFYFDYWGQGTLVTVSS VL: DIQMTQSPSSLSASVGDRVTITCKASQDVSTAVAWYQQKPGKAPKLLIYSASFRYTGVPSRFSGSRSGTDFTLTISSLQPEDFATYYCQQHYTTPPTFGQGTKVEIK | – | 0.16 | – |
| Herceptarg CLC Trastuzumab arm (E1) (antibody, V domains shown) VH: not shown VL: DIQMTQSPSSLSASVGDRVTITCKASQDVSTAVAWYQQKPGKAPKLLIYSASFRYTGVPSRFSGSRSGTDFTLTISSLQPEDFATYYCQQHYTTPPTFGQGTKVEIK | 0.72 | – | – |
| Herceptarg D1-derived Trastuzumab arm (antibody, V domains shown) VH: not shown VL: DIQMTQSPSSLSASVGDRVTITCKASQDVSTAVAWYQQKPGKAPKLLIYSASFRYTGVPSRFSGSRSGTDFTLTISSLQPEDFATYYCQQHYTTPPTFGQGTKVEIK | 0.6 | – | – |
| Herceptarg E1 Pertuzumab arm (antibody, V domains shown) VH: EVQLVESGGGLVQPGGSLRLSCAASGFTFADYTMDWVRQAPGKGLEWVADVNPNSGGSIYNQRFKGRFTLSVDRSKNTLYLQMNSLRAEDTAVYYCARNLGPWFYFDYWGQGTLVTVSS VL: DIQMTQSPSSLSASVGDRVTITCKASQDVSTAVAWYQQKPGKAPKLLIYSASFRYTGVPSRFSGSRSGTDFTLTISSLQPEDFATYYCQQHYTTPPTFGQGTKVEIK | – | 1.32 | – |
| Herceptarg CrossMab Pertuzumab arm (antibody) chain 1: not shown chain 2: DIQMTQSPSSLSASVGDRVTITCKASQDVSIGVAWYQQKPGKAPKLLIYSASYRYTGVPSRFSGSGSGTDFTLTISSLQPEDFATYYCQQYYIYPYTFGQGTKVEIKSSASTKGPSVFPLAPSSKSTSGGTAALGCLVKDYFPEPVTVSWNSGALTSGVHTFPAVLQSSGLYSLSSVVTVPSSSLGTQTYICNVNHKPSNTKVDKKVEPKSC | – | 0.84 | – |
| VH23-DANG/VL0(rb) (antibody, V domains shown) VH: QSMQESGPGLVKPSQTLSLTCTVSGFSLSSYAMSWIRQHPGKGLEWIGYIWSGGSTDYASWAKSRVTISKTSTTVSLKLSSVTAADTAVYYCARRYGTSYPDYGDANGFDPWGQGTLVTVSS VL: AYDMTQTPASVEVAVGGTVTIKCQASQSISSYLSWYQQKPGQRPKLLIYRASTLASGVSSRFKGSGSGTQFTLTISGVECADAATYYCQQCYSSSNVDNTFGGGTEVVVKR | – | – | koff [6]: 0.000338 s⁻¹ |
